Earlier results on one substance are cited in publication PMC4031507.

The data set has as its target Cys+1 (UniProt position 252, VVKNKCLAEGT).

On to “RecA intein (Mtu RecA intein) with C-extein Cys+1 (Mycobacterium tuberculosis)”, for which the pKa was 5.8.
